Test results published in patent US20240084032A1 (BLUEFIN BIOMEDICINE, published 2024).

Key:
Cynomolgus monkey CDCP1 = target: T1, Cynomolgus monkey CDCP1 (Macaca fascicularis, UniProt A0A2K5VLA8); assay: Octet BLI, Ab on Protein A sensor, recombinant CDCP1 analyte
T1 construct: recombinant ectodomain from CHO cells; construct not given; also called cyCDCP1; BBP468

[1] = target: T2, recombinant human CDCP1 ECD (AA30-667) with C-terminal His tag (human, UniProt Q9H5V8 30-667); assay: as above
T2 construct: range 30-667; also called FL-ECD; recombinant FL-ECD
Procedure: Affinity: The affinity of antibodies to various recombinant CDCP1 molecules was determined on an Octet Red (Pall, ForteBio) instrument. After loading reagents into a 96-well plate, the Octet Red with Protein A-conjugated biosensors was programmed as follows: 30 seconds for baseline #1; 120 seconds to immobilize the antibody; 30 seconds for baseline #2; 300 seconds for association of antibody to recombinant CDCP1; and 300-600 seconds for dissociation of recombinant CDCP1 from the antibody.

[2] = target: human CDCP1 endogenously expressed on cancer cell lines (human, UniProt Q9H5V8 30-836); assay: cell-based or functional assay
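Throughout, for Kd: antibody captured for 120 s on the sensor, followed by 300 s association with CDCP1 and a 300–600 s dissociation phase.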

| Kd (Cynomolgus monkey CDCP1) [nM] | Kd [1] [nM] | Binder | further results |
| --- | --- | --- | --- |
| 45 | 45 | 27H10 (antibody, human IgG1, V domains shown, also called human antibody 27H10) VH: QVQLVQSGAEVKKPGSSVKVSCKASGGTFSSYAMSWVRQAPGQGLEWMGGIIPILGTTNYAQKFQGRVTITADKSTSTAYMELSSLRSEDTAVYYCAREGLYAFDIWGQGTMVTVSS VL: DIQMTQSPSSLSASVGDRVTITCRASQSISSYLNWYQQKPGKAPKFLIYVASSLQSGVPSRFSGRGSGTDFTLTISSLQPEDFATYYCQQSYSTPWTFGQGTKVEIK | – |
| 83 | 8 | 02F3 (antibody, V domains shown) VH: QVQLVESGGGVVQPGRSLRLSCAASGFSFSDYGIHWVRQAPGKGLEWVAVIWYDGSNKYYADSVKGRFTISRDNSKNTLYLQVNSLIAEDTAVYYCARDRGYSSGWYVDYYYYGMDVWGQGTTVTVSS VL: not shown | – |
| 18 | 7 | 05A8 (antibody, V domains shown) VH: EVQLLESGGGLVQPGGSLRLSCAASGFTFSNYAMSWVRQAPGKGLEWVSAISGRGGSTYYADSVKGRFTISRDNSKNTLYLQMNSLRAEDTAVYYCAKDIVVVPAAKGYVMDAWGQGASVTVSS VL: not shown | – |
| 12 | 2 | 42C5 (antibody, V domains shown) VH: EVQLVESGGGLVQPGGSLRLSCAASGFTFSRYWMNWVRQAPGKGLEWVANIKQDGSEKDYVDSVKGRFTISRDNAKNSLFLQMSSLRAEDTAVYYCARVMYSSGWSFDYWGQGTLVTVSS VL: DIVMTQSPLSLPVTPGEPASISCRSSRSLLHSSGYNFLDWFLQKPGQSPQLLIFLGSDRASGVPDRFSGSGSGTDFTLKISRVETEDVGVYYCMQALQTPITFGQGTRLEIK | – |
| 500 | 35 | 47G7 (antibody, human IgG1, V domains shown, also called human antibody 47G7) VH: EVQLVESGGGLVQPGGSLRLSCAASGFTFSSYWMSWVRQAPGKGLEWVANIKQDGSEKDYVDSVKGRFTISRDNAKNSLYLQMNSLRVEDTAVYYCAREGGSSGWTFDYWGQGTLVTVSS VL: DIVMTQSPLSLPVTPGEPASISCRSSQSLLHSSGHNFLDWYLQKPGQSPQLLIYLGSNRASGVPDRFSGSGSGTDFTLKISRVEAEDVGVYYCMQALQTPPTFGQGTKLEIK | – |
| 8 | 1 | 12C2 (antibody, V domains shown) VH: QEQLVESGGGVVQPGRSLRLSCVTSGFTFSSYGMHWVRQAPGKGLEWVAVIWYDGTNKYYADTVKGRFTISRDNSKNTLYLQMNSLRAEDTGVYYCAREGCDTISCPYYYYGMDVWGQGTTITVSS VL: DILMTQSPSSLSASVGDRVTITCRASQGINYYLAWYQQKPGKVPKLLIYTASTLQSGVPSRFSGSGSGTDFTLTISSLQPEDVATYFCQKYNSAPFTFGPGTKLEIK | – |
| 80 | 20 | 03C05 (antibody, V domains shown, also called 3C5) VH: EVQVLESGGGLVQPGGSLRLSCAASGFTFSSYVMSWVRQAPGKGLEWVSGISGSGGSTHYADSVKGRFTISRDNSKNTLYLQMNSLRAEDTALYYCAQQWPQGYWGQGTLVTVSS VL: DIQMTQSPSSLSASVGDRVTITCRASQDISIYLAWFQQKPGKVPKVLIYAASTLQSGVPSRFSGSGTGTDFTLTISSLQPEDVATYFCQKYNSAPFTFGPGTKLEIK | – |
| > 500 | 20 | 01E2 (antibody, V domains shown) VH: QVQLVESGGGVVQPGRSLRLSCAASGFTFSSYGMHWVRQAPGKGLEWVAVIWYAGSNKYYADSVKGRFTISRDNSKNTLYLQMNSLRAEDTAVYYCAGWDFDYWGQGTLVTVSS VL: EIVLTQSPATLSLSPGERATLSCRASQTVPNYLAWYQQKPGQAPRLLIYDASNRATDIPARFSGSGSGTDFTLTISSLEPEDFAVYYCQQRANWPPITFGQGTRLEIK | – |

The remaining lines, values behind:

| Binder | Kd (Cynomolgus monkey CDCP1) [nM] | Kd [1] [nM] | further results |
| --- | --- | --- | --- |
| 10E2 (antibody, V domains shown, also called human antibody 10E2) VH: QVQLVESGGGVVQPGRSLRLSCAASGFTFSSYGMHWVRQAPGKGLEWVAVVWYDGTIKYYADSVKGRFTISRDNPKNTLYLQMNSLRAEDTAVYYCASQYSSGWHTDFFDVWGQGTMVTVSS VL: DIQMTQSPSTLSASVGDRVTITCRASQSISTWLAWYQQKPGKAPKFLIYKASSLESGVPSRFSGSGSGTEFTLTISSLQPDDFATYYCQQYSGYSLTFGGGTKVEIK | 1 | < 1 | – |
| 04G06 (antibody, V domains shown, also called 4G6) VH: QVQLVESGGGVVQPGRSLRLSCVVSGFTLSSYGMHWVRQAPGKGLEWVAVIWYDGSDKYYADSVKGRFTISRDNSKNTLYLQMNSLRAEDTAVYYCARDDWGFDYWGQGTLVTVSS VL: DIQLTQSPSFLSASVGDRVTITCRASQDISNYLAWYQQKPGKAPKLLISASTLQSGVPSRFSGSGSGTEFILTISSLQPEDFATYYCQHLNSYPFGQGTKVEIK | 27 | 4 | – |
| 41A9 (antibody, human IgG1, V domains shown, also called 41A09; human antibody 41A9) VH: QVQLQQWGAGLLKPSETLSLTCAVYGGSFSDYYWSWIRQPPGKGLEWIGEINHSGSTNYNPSLKSRVTISVDTSKNQFSLKLSSVTAADTAVYYCARDYDVLTGHFYYYYGMDVWGQGTTVTVSS VL: EIVLTQSPATLSLSPGERATLSCRASQSVRRYLAWYQQKPGQAPRLLIYDASNRATGIPARFSGSGSGTDFTLTISSLEPEDFAVYYCQQRNNWPLTFGGGTKLEIK | 13 | 6 | – |
| 18C6 (antibody, human IgG1, V domains shown, also called 18C06; human antibody 18C6) VH: QVQLQESGPGQVKPSETLSLTCTVSGGSISSSFWSWIRQPPGKGLEWIGYIYYSESTNYNPSLKRRVTLSVDTSKNQFSLKLTSVTTADTAVYYCARNIGVAGLFDYWGQGTLVTVSS VL: not shown | 190 | 25 | – |
| 14H4 (antibody, V domains shown) VH: EVQLLESGGDLVQPGGSLRLSCAASGFTFNSYAMSWVRQAPGKGLEWVSVLSGSGGDIHYADSVKGRFTVSRDNSKNMLYLQMNSLRAEDTAVYFCAQQWPQGYWGQGTLVTVSS VL: DIQMTQSPSSLSASVGDRVTITCRASQGISIYLAWFQQKPGKVPKLLIYAASTLQSGVPSRFSGSGSGTDFTLTISSLQPEDVATYYCQKYNSAPFTFGPGTKVEIK | 5 | < 1 | – |
| 03B05 (antibody, V domains shown, also called 3B5) VH: QVQLVESGGGVVQPGRSLRLSCAASGFTFSSYGMHWVRQAPGKGLEWVAIIWYDGSNKYYADSVKGRFTISRDNSKNTLYLQMNSLRAEDTAVYYCAKDPSYSSGYYLFDFWGQGTLVTVSS VL: not shown | 75 | 17 | – |
| 38E11-vcMMAE (other, maleimidocaproyl-valine-citrulline-p-aminobenzoyloxycarbonyl-MMAE on hinge region cysteine thiols, positions not given; DAR 3.9) VH: EVQLLESGGGLVQPGGSLRLSCAASGFTFSNYAMNWVRQAPGKGLEWVSAISGGGGSTYYADSVKGRFTISRDNSKNTLYLQMNSLRAEDTAVYYCAKESITMVRGVMDYYGMDVWGQGTTVTVSS VL: DIQLTQSPSFLSASVGDRVTITCRASQGISSYLAWYQQKPGKAPKLLIYAASTLQGGVPSRFSGSGSGTEFTLTISSLQPEDFATYYCQHLNRFPRTFGQGTKVEIK | – | – | EC50 of killing, Cal-12T NSCLC cells, CellTiter Glo, 96 hrs [2]: > 1 µg/mL; EC50 of killing, DU145 prostate cancer cells, CellTiter Glo, 96 hrs [2]: 1 µg/mL; EC50 of killing, H1650 NSCLC cells, CellTiter Glo, 96 hrs [2]: > 1 µg/mL; EC50 of killing, HCC15 NSCLC cells, CellTiter Glo, 96 hrs [2]: > 1 µg/mL; EC50 of killing, HCC44 NSCLC cells, CellTiter Glo, 96 hrs [2]: > 1 µg/mL; EC50 of killing, HCC78 NSCLC cells, CellTiter Glo, 96 hrs [2]: > 1 µg/mL; EC50 of killing, HCC827 NSCLC cells, CellTiter Glo, 96 hrs [2]: > 1 µg/mL; EC50 of killing, PC3 prostate cancer cells, CellTiter Glo, 96 hrs [2]: 0.1 µg/mL |
| 50D6 (antibody, V domains shown) VH: EVQVLESGGGLVQPGGSLRLSCAASGFTFSNYAMNWVRQAPGKGLEWVSAISGGGGSTYYADSVKGRATISRDNSENTLYLQMNSLRAEDTAVYYCAKTSSGWYDSYYDYYGLDVWGQGTTVTVSS VL: DIQLTQSPSFLSASVGDRVTITCRASQGISNYLAWYQQKPGKVPKLLIYAVSTLQSGVPSRFSGSGSGTEFTLTISSLQPEDFATYYCQQLNSYPFTFGGGTKLEIK | < 1 | < 1 | – |
| 3B11 (antibody, human IgG1, V domains shown, also called 03B11; 3B111) VH: QVQLQQWDAGLLKPSETLSLTCAVYGGSFSSYYWSWIRQPPGKGLEWIGEINHSGSTSYNPSLKSRVTISIDTSKNQFSLKLNSMTAADTAVYFCAASPYFDYWGQGTLVTVSS VL: DIQLTQSPSFLSASVGDRVTITCRASQGISSYLAWYQQKPGKAPKLLIYAASTLQSGVPSRFSGSGSGTEFTLTISSLQPEDFATYYCQQLNSYPRTFGQGTKVEIK | > 500 | 60 | – |
| 38E11 (antibody, human IgG1, V domains shown, also called human antibody 38E11) VH: EVQLLESGGGLVQPGGSLRLSCAASGFTFSNYAMNWVRQAPGKGLEWVSAISGGGGSTYYADSVKGRFTISRDNSKNTLYLQMNSLRAEDTAVYYCAKESITMVRGVMDYYGMDVWGQGTTVTVSS VL: DIQLTQSPSFLSASVGDRVTITCRASQGISSYLAWYQQKPGKAPKLLIYAASTLQGGVPSRFSGSGSGTEFTLTISSLQPEDFATYYCQHLNRFPRTFGQGTKVEIK | 4 | 2 | – |
| 38E11-PBD (other, MA-PEG8-VA-PAB-SG3199 (PBD) on hinge region cysteine thiols, positions not given; DAR 2.3) VH: EVQLLESGGGLVQPGGSLRLSCAASGFTFSNYAMNWVRQAPGKGLEWVSAISGGGGSTYYADSVKGRFTISRDNSKNTLYLQMNSLRAEDTAVYYCAKESITMVRGVMDYYGMDVWGQGTTVTVSS VL: DIQLTQSPSFLSASVGDRVTITCRASQGISSYLAWYQQKPGKAPKLLIYAASTLQGGVPSRFSGSGSGTEFTLTISSLQPEDFATYYCQHLNRFPRTFGQGTKVEIK | – | – | EC50 of killing, Cal-12T NSCLC cells, CellTiter Glo, 96 hrs [2]: > 1 µg/mL; EC50 of killing, DU145 prostate cancer cells, CellTiter Glo, 96 hrs [2]: 0.1 µg/mL; EC50 of killing, H460 NSCLC cells, CellTiter Glo, 96 hrs [2]: ~0.1 µg/mL; EC50 of killing, H1299 NSCLC cells, CellTiter Glo, 96 hrs [2]: > 1 µg/mL; EC50 of killing, H1650 NSCLC cells, CellTiter Glo, 96 hrs [2]: ~1 µg/mL; EC50 of killing, HCC44 NSCLC cells, CellTiter Glo, 96 hrs [2]: ~1 µg/mL; EC50 of killing, HCC827 NSCLC cells, CellTiter Glo, 96 hrs [2]: > 1 µg/mL; EC50 of killing, LNCAP prostate cancer cells, CellTiter Glo, 96 hrs [2]: 0.01 µg/mL; EC50 of killing, PC3 prostate cancer cells, CellTiter Glo, 96 hrs [2]: 1 µg/mL |
